The results in this text go back to PMC9930174 (2022).

The target in assay [1] is T1, α-myosin (MYH6) peptide on H-2Kb (mouse).
T1 peptide: VQQVYYSI
As to the kind of experiment: activation reporter or marker.

The target in assay [2] is T2, α-myosin (MYH6) peptide on HLA-A*24:02 (human).
T2 peptide: RINATLETK
As to the kind of experiment: multimer staining.

Assay [3] addresses T3, α-myosin (MYH6) peptide on HLA-A*03:01 (human).
T3 peptide: RINATLETK
As to the kind of experiment: multimer staining.

Assay [4] deals with T4, α-myosin (MYH6) peptide on H-2Kb (mouse).
T4 peptide: VIQYFASI
Put plainly: activation reporter or marker.

B1: TCR-C (TCR)
alpha TRAV6D-6 TRAJ39 CDR3: CALGDRNNAGAKLTF
beta TRBV12-2 TRBJ2-5 CDR3: CASSLGGTVQDTQYF
On to B1, for which the binding result in assay [1] was “recognises”.

B2: TCR-Pt1 (TCR)
alpha TRAV19 TRAJ32 CDR3: CALSDRYGGATNKLIF
beta TRBV9 TRBJ2-6 CDR3: CASSPYQSSGANVLTF
As for B2, the binding result was “no recognition” in assay [2] and “recognises” in assay [3].

B3: TCR-B (TCR)
alpha TRAV13-1 TRAJ22 CDR3: CALERASGSWQLIF
beta TRBV15 TRBJ2-7 CDR3: CASSLRRGEQYF
B3: the binding result in assay [4] is “recognises”.
